Data published in IntAct's records for PubMed 29892012.

B1: Protein VAC14 homolog (Homo sapiens), Q08AM6 (parent)
chain: MNPEKDFAPLTPNIVRALNDKLYEKRKVAALEIEKLVREFVAQNNTVQIKHVIQTLSQEFALSQHPHSRKGGLIGLAACSIALGKDSGLYLKELIEPVLTCFNDADSRLRYYACEALYNIVKVARGAVLPHFNVLFDGLSKLAADPDPNVKSGSELLDRLLKDIVTESNKFDLVSFIPLLRERIYSNNQYARQFIISWILVLESVPDINLLDYLPEILDGLFQILGDNGKEIRKMCEVVLGEFLKEIKKNPSSVKFAEMANILVIHCQTTDDLIQLTAMCWMREFIQLAGRVMLPYSSGILTAVLPCLAYDDRKKSIKEVANVCNQSLMKLVTPEDDELDELRPGQRQAEPTPDDALPKQEGTASGGPDGSCDSSFSSGISVFTAASTERAPVTLHLDGIVQVLNCHLSDTAIGMMTRIAVLKWLYHLYIKTPRKMFRHTDSLFPILLQTLSDESDEVILKDLEVLAEIASSPAGQTDDPGPLDGPDLQASHSELQVPTPGRAGLLNTSGTKGLECSPSTPTMNSYFYKFMINLLKRFSSERKLLEVRGPFIIRQLCLLLNAENIFHSMADILLREEDLKFASTMVHALNTILLTSTELFQLRNQLKDLKTLESQNLFCCLYRSWCHNPVTTVSLCFLTQNYRHAYDLIQKFGDLEVTVDFLAEVDKLVQLIECPIFTYLRLQLLDVKNNPYLIKALYGLLMLLPQSSAFQLLSHRLQCVPNPELLQTEDSLKAAPKSQKADSPSIDYAELLQHFEKVQNKHLEVRHQRSGRGDHLDRRVVL
partner: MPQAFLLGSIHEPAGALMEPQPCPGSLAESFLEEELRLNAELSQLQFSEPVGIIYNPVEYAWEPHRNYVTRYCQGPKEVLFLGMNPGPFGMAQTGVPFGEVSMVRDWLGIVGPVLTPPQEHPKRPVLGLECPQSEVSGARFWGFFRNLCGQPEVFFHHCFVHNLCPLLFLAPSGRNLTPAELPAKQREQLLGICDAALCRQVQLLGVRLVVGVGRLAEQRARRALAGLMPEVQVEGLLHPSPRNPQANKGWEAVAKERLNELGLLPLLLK
B2: Ribosome assembly protein METTL17, mitochondrial (Homo sapiens), Q9H7H0 (parent)
chain: MAAALKCLLTLGRWCPGLGVAPQARALAALVPGVTQVDNKSGFLQKRPHRQHPGILKLPHVRLPQALANGAQLLLLGSAGPTMENQVQTLTSYLWSRHLPVEPEELQRRARHLEKKFLENPDLSQTEEKLRGAVLHALRKTTYHWQELSYTEGLSLVYMAARLDGGFAAVSRAFHEIRARNPAFQPQTLMDFGSGTGSVTWAAHSIWGQSLREYMCVDRSAAMLVLAEKLLKGGSESGEPYIPGVFFRQFLPVSPKVQFDVVVSAFSLSELPSKADRTEVVQTLWRKTGHFLVLVENGTKAGHSLLMDARDLVLKGKEKSPLDPRPGFVFAPCPHELPCPQLTNLACSFSQAYHPIPFSWNKKPKEEKFSMVILARGSPEEAHRWPRITQPVLKRPRHVHCHLCCPDGHMQHAVLTARRHGRDLYRCARVSSWGDLLPVLTPSAFPPSTAQDPSES
partner: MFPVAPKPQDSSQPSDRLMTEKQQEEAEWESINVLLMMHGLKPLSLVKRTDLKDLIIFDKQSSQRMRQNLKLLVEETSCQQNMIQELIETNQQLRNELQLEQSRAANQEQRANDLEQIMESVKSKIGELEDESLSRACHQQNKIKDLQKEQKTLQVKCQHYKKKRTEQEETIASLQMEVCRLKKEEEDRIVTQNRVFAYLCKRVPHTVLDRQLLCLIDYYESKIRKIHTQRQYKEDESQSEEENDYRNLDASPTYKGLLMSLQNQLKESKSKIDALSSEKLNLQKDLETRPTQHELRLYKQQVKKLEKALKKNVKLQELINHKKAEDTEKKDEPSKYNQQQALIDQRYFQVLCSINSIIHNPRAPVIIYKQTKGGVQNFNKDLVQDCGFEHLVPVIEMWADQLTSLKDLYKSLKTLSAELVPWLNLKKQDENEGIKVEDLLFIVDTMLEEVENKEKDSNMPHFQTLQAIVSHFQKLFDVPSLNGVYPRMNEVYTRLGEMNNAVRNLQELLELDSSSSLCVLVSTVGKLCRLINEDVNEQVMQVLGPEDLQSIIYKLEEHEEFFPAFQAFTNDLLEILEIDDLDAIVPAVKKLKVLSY
B3: Alpha-ketoglutarate-dependent dioxygenase alkB homolog 3 (Homo sapiens), Q96Q83 (parent)
chain: MEEKRRRARVQGAWAAPVKSQAIAQPATTAKSHLHQKPGQTWKNKEHHLSDREFVFKEPQQVVRRAPEPRVIDREGVYEISLSPTGVSRVCLYPGFVDVKEADWILEQLCQDVPWKQRTGIREDITYQQPRLTAWYGELPYTYSRITMEPNPHWHPVLRTLKNRIEENTGHTFNSLLCNLYRNEKDSVDWHSDDEPSLGRCPIIASLSFGATRTFEMRKKPPPEENGDYTYVERVKIPLDHGTLLIMEGATQADWQHRVPKEYHSREPRVNLTFRTVYPDPRGAPW
partner: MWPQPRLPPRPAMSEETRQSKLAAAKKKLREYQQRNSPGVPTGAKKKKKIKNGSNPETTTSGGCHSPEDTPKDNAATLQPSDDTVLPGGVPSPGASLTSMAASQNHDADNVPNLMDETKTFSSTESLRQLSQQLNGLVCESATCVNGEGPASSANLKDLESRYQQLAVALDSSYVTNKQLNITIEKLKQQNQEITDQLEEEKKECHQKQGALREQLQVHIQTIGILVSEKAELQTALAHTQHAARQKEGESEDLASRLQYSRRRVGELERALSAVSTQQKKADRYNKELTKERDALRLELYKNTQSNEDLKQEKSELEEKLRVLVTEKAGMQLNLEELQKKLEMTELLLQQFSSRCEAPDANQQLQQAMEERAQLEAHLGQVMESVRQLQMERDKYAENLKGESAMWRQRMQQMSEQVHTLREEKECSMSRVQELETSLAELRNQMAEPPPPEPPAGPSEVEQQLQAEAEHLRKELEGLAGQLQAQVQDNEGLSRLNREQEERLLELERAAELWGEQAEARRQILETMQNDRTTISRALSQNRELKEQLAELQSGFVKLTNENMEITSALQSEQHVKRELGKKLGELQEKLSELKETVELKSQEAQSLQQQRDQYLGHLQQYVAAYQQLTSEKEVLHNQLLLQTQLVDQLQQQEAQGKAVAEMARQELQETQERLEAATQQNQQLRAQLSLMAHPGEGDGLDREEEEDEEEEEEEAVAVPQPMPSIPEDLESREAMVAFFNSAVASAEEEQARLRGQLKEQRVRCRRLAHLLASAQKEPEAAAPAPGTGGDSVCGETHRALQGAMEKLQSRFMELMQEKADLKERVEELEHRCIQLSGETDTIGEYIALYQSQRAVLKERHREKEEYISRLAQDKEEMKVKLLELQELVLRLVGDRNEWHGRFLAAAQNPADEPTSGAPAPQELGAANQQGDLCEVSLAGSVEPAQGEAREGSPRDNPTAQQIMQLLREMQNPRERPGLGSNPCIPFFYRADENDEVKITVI
B4: PDZ and LIM domain protein 1 (Homo sapiens), O00151 (parent)
chain: MTTQQIDLQGPGPWGFRLVGGKDFEQPLAISRVTPGSKAALANLCIGDVITAIDGENTSNMTHLEAQNRIKGCTDNLTLTVARSEHKVWSPLVTEEGKRHPYKMNLASEPQEVLHIGSAHNRSAMPFTASPASSTTARVITNQYNNPAGLYSSENISNFNNALESKTAASGVEANSRPLDHAQPPSSLVIDKESEVYKMLQEKQELNEPPKQSTSFLVLQEILESEEKGDPNKPSGFRSVKAPVTKVAASIGNAQKLPMCDKCGTGIVGVFVKLRDRHRHPECYVCTDCGTNLKQKGHFFVEDQIYCEKHARERVTPPEGYEVVTVFPK
B5: TBC1 domain family member 22B (Homo sapiens), Q9NU19 (parent)
chain: MAAENSKQFWKRSAKLPGSIQPVYGAQHPPLDPRLTKNFIKERSKVNTVPLKNKKASSFHEFARNTSDAWDIGDDEEEDFSSPSFQTLNSKVALATAAQVLENHSKLRVKPERSQSTTSDVPANYKVIKSSSDAQLSRNSSDTCLRNPLHKQQSLPLRPIIPLVARISDQNASGAPPMTVREKTRLEKFRQLLSSQNTDLDELRKCSWPGVPREVRPITWRLLSGYLPANTERRKLTLQRKREEYFGFIEQYYDSRNEEHHQDTYRQIHIDIPRTNPLIPLFQQPLVQEIFERILFIWAIRHPASGYVQGINDLVTPFFVVFLSEYVEEDVENFDVTNLSQDMLRSIEADSFWCMSKLLDGIQDNYTFAQPGIQKKVKALEELVSRIDEQVHNHFRRYEVEYLQFAFRWMNNLLMRELPLRCTIRLWDTYQSEPEGFSHFHLYVCAAFLIKWRKEILDEEDFQGLLMLLQNLPTIHWGNEEIGLLLAEAYRLKYMFADAPNHYRR
partner: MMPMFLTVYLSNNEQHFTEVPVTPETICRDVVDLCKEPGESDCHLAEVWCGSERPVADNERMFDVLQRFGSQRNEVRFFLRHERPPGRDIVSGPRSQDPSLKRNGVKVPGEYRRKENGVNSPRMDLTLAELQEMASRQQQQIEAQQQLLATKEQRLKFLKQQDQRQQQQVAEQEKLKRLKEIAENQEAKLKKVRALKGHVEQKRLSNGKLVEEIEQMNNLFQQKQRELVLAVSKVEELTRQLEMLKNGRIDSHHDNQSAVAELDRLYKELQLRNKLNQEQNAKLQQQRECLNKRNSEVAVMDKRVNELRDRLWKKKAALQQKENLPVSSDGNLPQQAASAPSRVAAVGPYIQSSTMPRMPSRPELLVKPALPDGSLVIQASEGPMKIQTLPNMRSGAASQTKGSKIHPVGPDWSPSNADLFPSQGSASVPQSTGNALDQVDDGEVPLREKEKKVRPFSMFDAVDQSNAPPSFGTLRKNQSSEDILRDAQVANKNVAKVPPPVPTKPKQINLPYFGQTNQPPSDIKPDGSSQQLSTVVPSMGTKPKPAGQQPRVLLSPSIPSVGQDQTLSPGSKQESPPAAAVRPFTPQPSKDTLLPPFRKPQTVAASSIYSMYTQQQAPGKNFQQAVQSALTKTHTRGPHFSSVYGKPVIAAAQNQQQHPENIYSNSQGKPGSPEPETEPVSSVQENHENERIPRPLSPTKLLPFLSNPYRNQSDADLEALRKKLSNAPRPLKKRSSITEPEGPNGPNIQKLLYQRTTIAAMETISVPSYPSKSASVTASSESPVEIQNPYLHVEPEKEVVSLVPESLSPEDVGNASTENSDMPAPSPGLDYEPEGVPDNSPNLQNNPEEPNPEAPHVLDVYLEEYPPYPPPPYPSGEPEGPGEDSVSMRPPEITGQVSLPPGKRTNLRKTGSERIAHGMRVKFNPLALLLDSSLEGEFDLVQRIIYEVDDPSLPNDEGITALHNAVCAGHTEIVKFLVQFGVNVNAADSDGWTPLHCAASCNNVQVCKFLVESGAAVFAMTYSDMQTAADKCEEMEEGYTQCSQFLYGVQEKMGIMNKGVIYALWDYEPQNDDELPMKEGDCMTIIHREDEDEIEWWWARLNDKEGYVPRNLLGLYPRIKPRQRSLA

Variants of: B1
Details: with smug1_human SMUG1, Q53HV7

Variant | effect of a mutation on the interaction
A127S | with no effect

Variants of: B2
Details: with cep70_human CEP70, Q8NHQ1

Variant | effect of a mutation on the interaction
R212H | with no effect

Variants of: B3
Details: with goga2_human GOLGA2, Q08379

Variant | effect of a mutation on the interaction
R64H | with no effect

Variants of: B4
Details: with gfap_human GFAP

Variant | effect of a mutation on the interaction
A249V | with no effect

Variants of: B4
Details: with actn4_human ACTN4, O43707
Sequence of actn4_human ACTN4, O43707 (O43707 whole entry): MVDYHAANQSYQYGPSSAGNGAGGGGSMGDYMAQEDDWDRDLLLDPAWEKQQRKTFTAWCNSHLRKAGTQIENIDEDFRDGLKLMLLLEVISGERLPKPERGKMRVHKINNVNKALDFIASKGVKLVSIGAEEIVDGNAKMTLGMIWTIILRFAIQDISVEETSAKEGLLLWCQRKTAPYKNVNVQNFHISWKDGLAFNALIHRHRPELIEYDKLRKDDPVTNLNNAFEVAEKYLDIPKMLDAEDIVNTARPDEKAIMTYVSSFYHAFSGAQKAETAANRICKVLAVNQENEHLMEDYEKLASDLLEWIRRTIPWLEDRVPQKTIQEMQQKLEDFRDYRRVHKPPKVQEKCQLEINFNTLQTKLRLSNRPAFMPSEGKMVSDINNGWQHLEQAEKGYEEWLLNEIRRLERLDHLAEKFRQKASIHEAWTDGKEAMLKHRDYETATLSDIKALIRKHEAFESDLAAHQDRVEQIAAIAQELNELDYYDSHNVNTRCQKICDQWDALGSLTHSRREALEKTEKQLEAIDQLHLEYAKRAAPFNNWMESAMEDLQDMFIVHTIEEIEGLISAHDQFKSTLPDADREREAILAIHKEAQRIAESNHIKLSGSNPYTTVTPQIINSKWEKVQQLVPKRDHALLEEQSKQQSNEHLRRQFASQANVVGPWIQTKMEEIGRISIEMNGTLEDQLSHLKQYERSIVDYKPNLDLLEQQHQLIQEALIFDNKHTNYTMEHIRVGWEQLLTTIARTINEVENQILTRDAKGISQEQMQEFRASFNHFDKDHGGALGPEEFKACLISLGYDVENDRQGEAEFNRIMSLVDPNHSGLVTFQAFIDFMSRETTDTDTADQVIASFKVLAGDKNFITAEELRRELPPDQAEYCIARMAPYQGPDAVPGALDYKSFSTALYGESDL

Variant | effect of a mutation on the interaction
A249V | with no effect

Variants of: B5
Details: with aspp2_human TP53BP2, Q13625

Variant | effect of a mutation on the interaction
A349T | disrupting interaction strength
